This note sets out measurements from patent US20250197467A1 (BRIGHT PEAK THERAPEUTICS, published 2025).

Assay [1] deals with T1, IL-18 receptor (IL-18Rαβ) on cells (UniProt Q13478 19-541; O95256 20-599, limits assumed).
T1 sequence (looked up) 1: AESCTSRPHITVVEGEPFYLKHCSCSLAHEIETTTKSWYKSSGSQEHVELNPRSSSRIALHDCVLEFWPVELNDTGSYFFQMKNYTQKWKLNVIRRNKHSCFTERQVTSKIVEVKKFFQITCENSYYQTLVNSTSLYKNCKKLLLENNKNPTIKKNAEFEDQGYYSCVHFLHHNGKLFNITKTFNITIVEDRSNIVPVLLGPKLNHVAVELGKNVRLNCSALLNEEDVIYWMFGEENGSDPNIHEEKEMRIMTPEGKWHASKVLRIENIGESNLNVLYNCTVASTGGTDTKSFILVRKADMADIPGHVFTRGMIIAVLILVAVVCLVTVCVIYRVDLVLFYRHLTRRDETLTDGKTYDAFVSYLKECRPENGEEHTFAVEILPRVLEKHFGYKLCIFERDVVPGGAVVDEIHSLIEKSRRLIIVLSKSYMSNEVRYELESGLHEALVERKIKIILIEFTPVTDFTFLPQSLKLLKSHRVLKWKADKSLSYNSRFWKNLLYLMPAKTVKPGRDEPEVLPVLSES
T1 sequence (looked up) 2: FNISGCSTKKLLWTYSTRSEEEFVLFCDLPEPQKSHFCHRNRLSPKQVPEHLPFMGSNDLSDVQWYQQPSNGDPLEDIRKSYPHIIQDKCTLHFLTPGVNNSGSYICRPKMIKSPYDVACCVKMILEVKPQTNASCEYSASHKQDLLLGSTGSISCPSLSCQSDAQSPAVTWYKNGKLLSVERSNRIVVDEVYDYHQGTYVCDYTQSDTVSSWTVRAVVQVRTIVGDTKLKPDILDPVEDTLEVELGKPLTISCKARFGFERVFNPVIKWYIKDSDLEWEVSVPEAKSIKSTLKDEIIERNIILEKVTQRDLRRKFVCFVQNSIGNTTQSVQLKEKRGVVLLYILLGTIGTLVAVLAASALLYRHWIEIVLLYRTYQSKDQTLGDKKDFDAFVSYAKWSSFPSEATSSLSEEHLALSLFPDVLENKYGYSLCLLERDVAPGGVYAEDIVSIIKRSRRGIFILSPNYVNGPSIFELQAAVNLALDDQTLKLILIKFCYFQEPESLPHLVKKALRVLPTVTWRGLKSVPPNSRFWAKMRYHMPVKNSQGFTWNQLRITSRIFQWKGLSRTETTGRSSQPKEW
Description: cell-based or functional assay.

In assay [2] the target is T1, IL-18 receptor (IL-18Rαβ) on cells. The assay is described as follows: cell-based or functional assay. This is another data set of the same source.
Assay [3] has the same target. Description: cell-based or functional assay. This is another data set of the same source.
The target is the same in assay [4]. The assay is described as follows: cell-based or functional assay. This is another data set of the same source.
Assay [5] has the same target. The assay is described as follows: cell-based or functional assay. This is another data set of the same source.
In assay [6] the target is T2, IL-18 receptor alpha subunit (Biotinylated for capture on streptavidin (SAX2) biosensors. The site and tag are not given in the patent.).
T2 construct: also called IL18 receptor alpha (Acro, IL1-H82E7); IL-18Ra
T2 chain: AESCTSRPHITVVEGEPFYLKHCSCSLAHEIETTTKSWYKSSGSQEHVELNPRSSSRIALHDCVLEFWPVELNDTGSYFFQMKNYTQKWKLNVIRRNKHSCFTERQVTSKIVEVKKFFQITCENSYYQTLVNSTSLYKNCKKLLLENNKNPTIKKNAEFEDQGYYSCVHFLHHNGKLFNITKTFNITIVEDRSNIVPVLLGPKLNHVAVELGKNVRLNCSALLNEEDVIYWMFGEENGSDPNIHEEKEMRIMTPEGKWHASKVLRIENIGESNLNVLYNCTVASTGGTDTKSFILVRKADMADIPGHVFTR
The assay is described as follows: BLI (Octet R8), IL-18 receptor alpha on streptavidin (SAX2) biosensor, analyte 1000 nM to 1.25 nM in 1:3 dilutions. The text has this: Act-IL18 candidates C185, C314, and C315 were digested as described above and characterized by BLI. Briefly, undigested and digested samples were compared for their binding against IL18 receptor on an Octet R8 (Sartorius).

B1: C190 (ligand)
chain: MAAEPVEDNCINFVAMKFIDNTLYFIAEDDENLESDYFGKLKSKLSIIRNLNDQVLFIDQGNRPLFEDMTDSDARDNAPRTIFIISMYADSQPRGMAVAISVKCEKISTLSAENKIISFKEMNPPDNIKDTKSDIIFFQRSVPGHDNKMQFESSSYEGYFLAAEKERDLFKLILKKEDELGDRSIMFTVQNED
For B1, the “HEK-blue EC50” value in assay [1] stood at 404 nM. The “Hek Blue reporter assay EC50” value in assay [2] was 404 pM.

B2: C190 + MMP9 (ligand)
chain: B1 chain
Turning to B2, the “HEK-blue EC50” value in assay [1] is 198 nM. The “Hek Blue reporter assay EC50” value in assay [2] came out at 198 pM.

B3: C086 (SEQ ID NO: 30) (ligand)
chain: YFGKLKSKLSIIRNLNDQVLFIDQGNRPLFEDMTDSDARDNAPRTIFIISMYADSQPRGMAVAISVKCEKISTLSAENKIISFKEMNPPDNIKDTKSDIIFFQRSVPGHDNKMQFESSSYEGYFLAAEKERDLFKLILKKEDELGDRSIMFTVQNED
Regarding B3, in assay [3], the “IFNγ release NK-92 assay EC50” value was found to be 0.0018 nM. Moreover, in assay [4], the “IFNg release PBMCs assay EC50” value is 0.0022 nM. The “HEK-Blue IL-18R reporter EC50” value in assay [5] was 0.034 pM. The “HEK-blue EC50” value in assay [1] turned out to be 0.04 nM. In addition, the “Hek Blue reporter assay EC50” value in assay [2] was 0.057 pM.

B4: C185 (ligand)
chain: MAAEPVEDNCINFVAMKFIDNTLYFIAEDDENLESDPLGYFGKLKSKLSIIRNLNDQVLFIDQGNRPLFEDMTDSDARDNAPRTIFIISMYADSQPRGMAVAISVKCEKISTLSAENKIISFKEMNPPDNIKDTKSDIIFFQRSVPGHDNKMQFESSSYEGYFLAAEKERDLFKLILKKEDELGDRSIMFTVQNED
As for B4, the “IFNγ release NK-92 assay EC50” value in assay [3] turned out to be 210 nM. Moreover, in assay [1], the “Fold potency loss vs C086” value was 60900 fold and the “HEK-blue EC50” value was determined as 2560 nM. In assay [2], the “Hek Blue reporter assay EC50” value was determined as 2790 pM. For the same molecule, the binding result in assay [6] is on record as “no binding”.

B5: C127 (ligand)
chain: MAAEPVEDNCINFVAMKFIDNTLYFIAEDDENLESDSGGPGPAGMKGLPGSYFGKLKSKLSIIRNLNDQVLFIDQGNRPLFEDMTDSDARDNAPRTIFIISMYADSQPRGMAVAISVKCEKISTLSAENKIISFKEMNPPDNIKDTKSDIIFFQRSVPGHDNKMQFESSSYEGYFLAAEKERDLFKLILKKEDELGDRSIMFTVQNED
With B5, in assay [1], the “Fold potency loss vs C086” value is 7000 fold and the “HEK-blue EC50” value worked out at 295 nM. Further, the “Hek Blue reporter assay EC50” value in assay [2] came out at 295 pM.

B6: C137 (ligand)
chain: YFGKLKSKLSIIRNLNDQVLFIDQGNRPLFEDMTDSDARDNAPRTIFIISMYADSQPRGMAVAISVKCEKISTLSAENKIISFKEMNPPDNIKDTKSDIIFFQRSVPGHDNKMQFESSSYEGYFLAAEKERDLFKLILKKEDELGDRSIMFTVQNEGGGGSGGGGSGGGGSNIVPVLLGPKLNHVAVELGKNVRLNCSALLNEEDVIYWMFGEENGSDPNIHEEKEMRIMTPEGKWHASKVLRIENIGESNLNVLYNCTVASTGGTDTKSFILVRKADHHHHHH
As to B6, in assay [1], the “Fold potency loss vs C086” value turned out to be 49 fold and the “HEK-blue EC50” value was determined as 2.08 nM. Also, the “Hek Blue reporter assay EC50” value in assay [2] came out at 2.08 pM.
